{"source": "paper PMC5505246", "about": "“Assembly of Francisella novicida Cpf1 endonuclease in complex with guide RNA and target DNA”", "target": "FnCpf1 (Cas12a) (Francisella novicida U112, UniProt A0Q7Q2 1-1300)", "sequence (A0Q7Q2 whole entry)": "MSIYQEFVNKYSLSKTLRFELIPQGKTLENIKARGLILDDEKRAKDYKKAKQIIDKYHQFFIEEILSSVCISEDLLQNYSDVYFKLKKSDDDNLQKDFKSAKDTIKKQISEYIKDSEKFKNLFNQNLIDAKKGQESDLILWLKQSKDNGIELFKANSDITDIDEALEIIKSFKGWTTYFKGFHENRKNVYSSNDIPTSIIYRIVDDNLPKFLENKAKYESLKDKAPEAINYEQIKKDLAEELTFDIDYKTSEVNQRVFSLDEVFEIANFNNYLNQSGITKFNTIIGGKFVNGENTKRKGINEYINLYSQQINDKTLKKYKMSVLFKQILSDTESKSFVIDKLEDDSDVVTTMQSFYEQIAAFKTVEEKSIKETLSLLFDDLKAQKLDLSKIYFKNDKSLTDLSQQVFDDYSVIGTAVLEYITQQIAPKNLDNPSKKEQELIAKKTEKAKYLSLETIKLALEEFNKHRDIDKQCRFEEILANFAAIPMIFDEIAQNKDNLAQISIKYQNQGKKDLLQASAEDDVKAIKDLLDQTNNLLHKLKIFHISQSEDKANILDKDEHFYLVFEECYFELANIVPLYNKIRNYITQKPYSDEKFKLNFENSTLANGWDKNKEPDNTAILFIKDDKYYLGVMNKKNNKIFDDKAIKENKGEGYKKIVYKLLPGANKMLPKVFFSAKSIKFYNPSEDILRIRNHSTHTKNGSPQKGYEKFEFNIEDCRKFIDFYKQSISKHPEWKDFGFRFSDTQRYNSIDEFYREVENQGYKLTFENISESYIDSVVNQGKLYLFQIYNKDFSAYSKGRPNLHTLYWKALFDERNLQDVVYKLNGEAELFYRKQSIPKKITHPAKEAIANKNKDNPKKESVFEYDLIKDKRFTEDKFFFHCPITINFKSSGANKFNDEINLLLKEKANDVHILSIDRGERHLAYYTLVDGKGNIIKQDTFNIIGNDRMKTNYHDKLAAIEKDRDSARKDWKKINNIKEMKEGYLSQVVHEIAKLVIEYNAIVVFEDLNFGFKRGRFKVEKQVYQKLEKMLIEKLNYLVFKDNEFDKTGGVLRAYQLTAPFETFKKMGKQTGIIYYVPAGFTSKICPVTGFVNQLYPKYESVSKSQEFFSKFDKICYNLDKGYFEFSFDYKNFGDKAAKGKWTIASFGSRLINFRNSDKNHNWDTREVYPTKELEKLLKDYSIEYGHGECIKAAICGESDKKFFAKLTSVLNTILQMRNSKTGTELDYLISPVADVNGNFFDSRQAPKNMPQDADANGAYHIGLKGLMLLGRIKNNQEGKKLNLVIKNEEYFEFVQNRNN", "experiment": "native PAGE / preparative native electrophoresis; 5 mM MgCl2; protein:RNA:DNA 1:1.3:1.7; Reconstitution: 81 mM KCl, 38 mM bicine pH 8.0, 5 mM MgCl2; protein + crRNA 30 min at 293 K, then DNA duplex 60 min at 368 K (so in the source); complex in 150 mM KCl, 50 mM bicine pH 8.0, 0.5 mM TCEP", "conditions": "protein: recombinant; tags: C-terminal His6; crRNA-guided DNA target", "data": [{"binder": "crRNA + 31-nt dsDNA target (target and nontarget strands) (mixed) RNA: AAUUUCUACUGUUGUAGAUGAGAAGUCAUUUAAUAAGGCCACU DNA 1: GCAGTGGCCTTATTAAATGACTTCTCTAACG DNA 2: CGTTAGAGAAGTCATTTAATAAGGCCACTGC", "values": [{"measurement": "binding result", "result": "binds"}]}]}
